# Positions count from the first letter of the chain named. Where two headings read alike, the source gives them in different places.
# B1: VB5-845-WT (non-deimmunized VB5-845 Fab fragment) (Fab, V domains shown)
# VH: EVQLVQSGPGLVQPGGSVRISCAASGYTFTNYGMNWVKQAPGKGLEWMGWINTYTGESTYADSFKGRFTFSLDTSASAAYLQINSLRAEDTAVYYCARFAIKGDYWGQGTLLTVSS
# VL: DIQMTQSPSSLSASVGDRVTITCRSTKSLLHSNGITYLYWYQQKPGKAPKLLIYQMSNLASGVPSRFSSSGSGTDFTLTISSLQPEDFATYYCAQNLEIPRTFGQGTKVELKR
# B2: VB5-845-Algo Fab (Fab, V domains shown)
# VH: EVQLQQSGPGLVQPGGSVRISCAASGYTFTAYGMNWVRQAPGKGLEWMGWINTYTGESTYADSFKGRFEFSLDTHNSSAYLQIQSLREEDTAVYYCARFAIQGDYWGQGTLVTVSS
# VL: B1 VL with R24K, K47S, N58H, L111I
# B3: VB6-845-(VH-IIr-CDR1/VL-Ir-Q50) (Fab)
# chain 1: EVQLVQSGPGLVQPGGSVRISCAASGYTFTNYGMNWVKQAPGKGLEWMGWINTYTGESTYADSFKGRFTFSLDTSASAAYLQINSLRAEDTAVYYCARFAIKGDYWGQGTLLTVSSASTKGPSVFPLAPSSKSTSGGTAALGCLVKDYFPEPVTVSWNSGALTSGVHTFPAVLQSSGLYSLSSVVTVPSSSLGTQTYICNVNHKPSNTKVDKKVEPKSCTRHRQPRGWEQLYNTVSFNLGEAYEYPTFIQDLRNELAKGTPVCQLPVTLQTIADDKRFVLVDITTTSKKTVKVAIDVTDVYVVGYQDKWDGKDRAVFLDKVPTVATSKLFPGVTNRVTLTFDGSYQKLVNAAKADRKALELGVNKLEFSIEAIHGKTINGQEAAKFFLIVIQMVSEAARFKYIETEVVDRGLYGSFKPNFKVLNLENNWGDISDAIHKSSPQCTTINPALQLISPSNDPWVVNKVSQISPDMGILKFKSSK
# chain 2: HHHHHHDIQMTQSPSSLSASVGDRVTITCRSTKSLLHSNGITYLYWYQQKPGKAPKLLIYQMSNLASGVPSRFSSSGSGTDFTLTISSLQPEDFATYYCAQNLEIPRTFGQGTKVELKRTVAAPSVFIFPPSDEQLKSGTASVVCLLNNFYPREAKVQWKVDNALQSGNSQESVTEQDSKDSTYSLSSTLTLSKADYEKHKVYACEVTHQGLSSPVTKSFNRGEC
# B4: VB6-845-Algo (VH-IIr-N35-Q98 / VL-IIr-KSHI) (Fab)
# heavy: EVQLQQSGPGLVQPGGSVRISCAASGYTFTAYGMNWVRQAPGKGLEWMGWINTYTGESTYADSFKGRFEFSLDTHNSSAYLQIQSLREEDTAVYYCARFAIQGDYWGQGTLVTVSSASTKGPSVFPLAPSSKSTSGGTAALGCLVKDYFPEPVTVSWNSGALTSGVHTFPAVLQSSGLYSLSSVVTVPSSSLGTQTYICNVNHKPSNTKVDKKVEPKSC
# light: DIQMTQSPSSLSASVGDRVTITCKSTKSLLHSNGITYLYWYQQKPGSAPKLLIYQMSHLASGVPSRFSSSGSGTDFTLTISSLQPEDFATYYCAQNLEIPRTFGQGTKVEIKRTVAAPSVFIFPPSDEQLKSGTASVVCLLNNFYPREAKVQWKVDNALQSGNSQESVTEQDSKDSTYSLSSTLTLSKADYEKHKVYACEVTHQGLSSPVTKSFNRGECTRHRQPRGWEQKYNTVSFNLGEAYEYPTFIQDLRNELAKGTPVCQLPVTLQTIADDKRFVLVDITTTSKKTVKVAIDVTDVYVVGYQDKWDGKDRAVFLDKVPTVATSKLFPGVTNRVTLTFDGSYQKLVNAAKADRKALELGVNKLEFSIEAIHGKTINGQEAAKFFLIVIQMVSEAARFKYIETEVVDRGLYGSFKPNFKVLNLENNWGDISDAIHKSSPQCTTINPALQLISPSNDPWVVNKVSQISPDMGILKFKSSK
# B5: VB6-845 VH-WT / VL-IIr-KSHI (Fab)
# heavy: EVQLVQSGPGLVQPGGSVRISCAASGYTFTNYGMNWVKQAPGKGLEWMGWINTYTGESTYADSFKGRFTFSLDTSASAAYLQINSLRAEDTAVYYCARFAIKGDYWGQGTLLTVSSASTKGPSVFPLAPSSKSTSGGTAALGCLVKDYFPEPVTVSWNSGALTSGVHTFPAVLQSSGLYSLSSVVTVPSSSLGTQTYICNVNHKPSNTKVDKKVEPKSC
# light: B4 light
# B6: VB6-845 VH-IIr-N35-Q98 / VL-WT (Fab)
# heavy: B4 heavy
# light: B4 light with K24R, S47K, H58N, I111L
# What was measured:
# [1] = molecular target: Epithelial Cell Adhesion Molecule (EpCAM) (human) (UniProt P16422)
# [2] = molecular target: Epithelial Cell Adhesion Molecule (EpCAM) (human) (UniProt P16422); remark: listed apart in the source
# [3] = molecular target: Epithelial Cell Adhesion Molecule (EpCAM) (human) (UniProt P16422); remark: listed apart in the source
# [4] = molecular target: T1, Epithelial Cell Adhesion Molecule (EpCAM) (human, UniProt P16422 24-314); test: flow cytometry titration (3.2 to 1000 ng/mL) on CAL-27 cells, Lineweaver-Burk plot
# T1 construct: whole, on cells; also called 17-1A; KSA
# T1 sequence (looked up): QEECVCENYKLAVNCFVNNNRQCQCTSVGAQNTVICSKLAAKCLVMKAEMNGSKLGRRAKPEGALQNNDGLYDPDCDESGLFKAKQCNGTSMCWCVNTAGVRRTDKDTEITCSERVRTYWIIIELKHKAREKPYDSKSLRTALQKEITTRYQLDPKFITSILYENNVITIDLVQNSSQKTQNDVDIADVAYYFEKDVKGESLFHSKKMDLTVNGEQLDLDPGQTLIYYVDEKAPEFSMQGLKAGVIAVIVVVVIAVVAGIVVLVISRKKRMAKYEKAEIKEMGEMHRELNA
# [5] = molecular target: T2, Epithelial Cell Adhesion Molecule (EpCAM) (human, UniProt P16422 24-314); test: flow cytometry (Lineweaver-Burk), Cal-27 cells
# T2 chain: T1 sequence (looked up)
# [6] = molecular target: T1, Epithelial Cell Adhesion Molecule …
# [7] = molecular target: T1, Epithelial Cell Adhesion Molecule …; test: flow cytometry on MCF-7 cells (EpCAM-positive), purified protein at 100 ng/mL
# [8] = molecular target: T1, Epithelial Cell Adhesion Molecule …; test: flow cytometry on OVCAR-3 cells (EpCAM-positive), purified protein at 100 ng/mL
# [9] = molecular target: T1, Epithelial Cell Adhesion Molecule …; test: flow cytometry on HT-29 cells (EpCAM-positive), purified protein at 100 ng/mL
# [10] = molecular target: T1, Epithelial Cell Adhesion Molecule …; test: cell-based or functional assay
# [11] = molecular target: T1, Epithelial Cell Adhesion Molecule …; remark: listed apart in the source
# [12] = molecular target: T1, Epithelial Cell Adhesion Molecule …; test: flow cytometry on CAL-27 cells (EpCAM-positive), purified protein at 100 ng/mL
# [13] = molecular target: T1, Epithelial Cell Adhesion Molecule …; remark: listed apart in the source
# [14] = molecular target: T1, Epithelial Cell Adhesion Molecule …; remark: listed apart in the source
molecule,measurement,setting,value
"VB6-845 VH-WT / VL-FR2 (D41-Q42), first version (Fab)","MF (median fluorescence, % of WT)",[1],84 % of WT
VB6-845 VH-S93 / VL-WT (Fab),"MF (median fluorescence, % of WT)",[2],35 % of WT
VB6-845 VH-N53 / VL-WT (Fab),"MF (median fluorescence, % of WT)",[2],23 % of WT
"VB6-845 VH-WT / VL-FR2 (H39-S42), second version (Fab)","MF (median fluorescence, % of WT)",[3],68 % of WT
VB6-845 VH-WT / VL-CDR2 (E51-H53-Q55) (Fab),"MF (median fluorescence, % of WT)",[3],70 % of WT
B1,Kd,[4],1.56 nM
same,Kd,[5],1.46 nM
B2,Kd,[4],1.31 nM
B3,"MF (median fluorescence, % of WT)",[6],78 % of WT
B4,FI (fold increase) at 100 ng/mL,[7],27.7 fold
same,FI (fold increase) at 100 ng/mL,[8],40.9 fold
same,FI (fold increase) at 100 ng/mL,[9],41.6 fold
same,"IC50 (nM), MTS cytotoxicity assay, CAL-27 (EpCAM-positive)",[10],18 nM
same,"IC50 (nM), MTS cytotoxicity assay, HT-29 (EpCAM-positive)",[10],15 nM
same,"IC50 (nM), MTS cytotoxicity assay, MCF-7 (EpCAM-positive)",[10],2.3 nM
same,"IC50 (nM), MTS cytotoxicity assay, OVCAR-3 (EpCAM-positive)",[10],2.9 nM
same,"MF (median fluorescence, % of WT)",[11],94 % of WT
same,FI (fold increase) at 100 ng/mL,[12],14 fold
B5,"MF (median fluorescence, % of WT)",[13],89 % of WT
B6,"MF (median fluorescence, % of WT)",[14],100 % of WT
